Laboratory results: PMC9876794 (2022)

Assays:
[1] = target: T1, SARS-CoV-2 spike RBD (WT) (Severe acute respiratory syndrome …, UniProt P0DTC2); assay: BLI
[2] = target: T1, SARS-CoV-2 spike RBD (WT); assay: ELISA; set-up: unit not given here

B1: D126 (antibody, V domains shown)
VH: QVQLVQSGAEVKKPGASVKVSCKASGYTFTSYGISWVRQAPGQGLEWMGWISAYNGNTNYAQKLQGRVTMTTDTSTSTAYMELRSLRSDDTAVYYCARDDTSGWYTGDAFDIWGQGTMVTVSS
VL: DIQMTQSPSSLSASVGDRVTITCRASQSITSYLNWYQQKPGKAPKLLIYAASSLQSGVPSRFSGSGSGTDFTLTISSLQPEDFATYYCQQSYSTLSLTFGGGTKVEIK
Kd [1]: 16.7 nM | binding score [2]: 973

B2: D155 (antibody, V domains shown)
VH: QLQLQESGPGLVKPSETLSLTCTVSGGSISSSSYYWGWIRQPPGKGLEWIGSIYYSGSTYYNPSLKSRVTISVDTSKNQFSLKLSSVTAADTAVYYCARQPYYYDSSGINRAFDIWGQGTMVTVSS
VL: QSVLTQPRSVSGSPGQSVTISCTGTSSDVGGYNYVSWYQQHPGKAPKLMIYDVSKRPSGVPDRFSGSKSGNTASLTISGLQAEDEADYYCCSYAGTVVFGGGTKLTVL
Kd [1]: 116 nM | binding score [2]: 1000

B3: D009 (antibody, V domains shown)
VH: EVQLLESGGGLVQPGGSLRLSCAATGFTFGSYTMTWVRQAPGKGLEWVSSISVSGRRTYYAGSVQGRFTVSRDNSMNALFLQMNSLRADDTAVYYCARDAPREAYYDRTGHYIFYYGMDLWGQGTTVTVSS
VL: EIVMTQSPATLSVSPGERATLSCRASQSVSDNLAWYQQKPGQAPRLLIYGASTRAIGIPDRFTGSGSGTEFTLTISSLQSEDFAVYYCQHYNNGPSVGFGQGTRVEFK
Kd [1]: 5440 nM | binding score [2]: 2390

B4: D063 (antibody, V domains shown)
VH: EVQLVQSGAEVKKPGESLKISCKGSGYSFTSYWIGWVRQMPGKGLEWMGIIYPGDSDTSPSFQGQVTISADKSISTAYLQWSSLKASDTAMYYCARVLNWNLGDYWGQGTLVTVSS
VL: not shown
Kd [1]: 94.8 nM | binding score [2]: 9040

B5: D038 (antibody, V domains shown)
VH: EVQLVQSGAEVKKPGESLKISCKGSGYSFTSYWIAWVRQMPGKGLEWMGIIYPGDSDTRYSPSFQGQVTISADKSISTAYLQWSSLKASDTAMYYCARQGYSYGYVDYWGQGTLVTVSS
VL: NFMLTQPHSVSESPGKTVTISCTRSSGSIASNYVQWYQQRPGSAPTTVIYEDNQRPSGVPDRFSGSIDSSSNSASLTISGLKTEDEADYYCQSYDSSNWVFGGGTKLTVL
Kd [1]: 306 nM | binding score [2]: > 10000

B6: D041 (antibody, V domains shown)
VH: EVQLVQSGAEVKKPGESLKISCKGSGYSFTSYWIGWVRQMPGKGLEWMGIIYPGDSDTRYSPSFQGQVTISADKSISTAYLQWSSLKASDTAMYYCARHPTVTGWFDPWGQGTLVTVSS
VL: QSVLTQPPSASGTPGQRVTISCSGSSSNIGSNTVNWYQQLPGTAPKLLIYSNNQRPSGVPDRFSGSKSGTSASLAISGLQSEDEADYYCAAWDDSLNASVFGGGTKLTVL
Kd [1]: 13.2 nM | binding score [2]: 33

B7: C2739 (antibody, V domains shown)
VH: EVQLVESGGGLVQPGGSLRLSCAASGFTFSSYWMSWVRQAPGKGLEWVANIKKDGSEKYYVDSVKGRFTISRDNDKNSLYLQMNSLRAEDTAVYYCARKKYYYGDFDYWGQGTLVTVSS
VL: NFMLTQPHSVSESPGKTVTISCTRSSGSIASNYVQWYQQRPGSSPTTVIYEDNQRPSGVPDRFSGSIDSSSNSASLTISGLKTEDEADYYCQSYDSIIREVFGGGTKLTVL
Kd [1]: 287 nM | binding score [2]: 52.3

B8: D083 (antibody, V domains shown)
VH: EVQLVQSGAEVKKPGESLKISCKGSGYSFTSHWIGWVRQMPGKGLEWMGIIYPGDSDTRYSPSFQGQVTISADKSISTAYLQWSSLKASDTAMYYCARHIKSDLWFGEKDSWGQGTLVTVSS
VL: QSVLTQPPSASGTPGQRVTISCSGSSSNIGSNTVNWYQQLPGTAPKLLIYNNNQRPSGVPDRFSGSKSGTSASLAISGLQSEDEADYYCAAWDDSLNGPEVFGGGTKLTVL
Kd [1]: 12.3 nM | binding score [2]: 62.7

B9: C2705 (antibody, V domains shown)
VH: EVQLVQSGAEVKKPGESLKISCKGSGYSFTSYWIGWVRQMPGKGLEWMGIIYPGDSDTRYSPSFQGQVTISADKSISTAYLQWSSLKASDTAMYYCARPVVTDYWYFDLWGRGTLVTVSS
VL: not shown
Kd [1]: 14 nM | binding score [2]: 867

B10: C2701 (antibody, V domains shown)
VH: EVQLVESGGGLVQPGGSLRLSCAASGFTVSSNYMSWVRQAPGKGLEWVSVIYSGGSTYYADSVKGRFTISRHNSKNTLYLQMNSLRAEDTAVYYCARDYGDLFFDYWGQGTTVTVSS
VL: not shown
Kd [1]: 88.4 nM | binding score [2]: 170

B11: D045 (antibody, V domains shown)
VH: EVQLVESGGGLVQPGGSLRLSCAASGFTFSSYSMNWVRQAPGKGLEWVSYISSSSSTIYYADSVKGRFTISRDNAKNSLYLQMNSLRDEDTAVYYCARHYGSGSSYYYYGMDVWGQGTTVTVSS
VL: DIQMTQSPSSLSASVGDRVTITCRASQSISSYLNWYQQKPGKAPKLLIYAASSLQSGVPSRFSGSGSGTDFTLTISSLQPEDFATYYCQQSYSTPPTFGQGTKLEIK
Kd [1]: 61.1 nM | binding score [2]: 15.7

B12: C2709 (antibody, V domains shown)
VH: EVQLVESGGGLVQPGGSLRLSCAASGFTVSSNYMSWVRQAPGKGLEWVSVIYSGGSTYYADSVKGRFTISRDNSKNTLYLQMNSLRAEDTAVYYCARDNEHYGSGSLTLDYWGQGTLVTVSS
VL: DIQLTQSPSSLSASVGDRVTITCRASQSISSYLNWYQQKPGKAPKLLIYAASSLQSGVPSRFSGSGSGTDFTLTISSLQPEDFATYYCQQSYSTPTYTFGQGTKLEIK
Kd [1]: 115 nM | binding score [2]: 5050

B13: D145 (antibody, V domains shown)
VH: QVQLVESGGGVVQPGRSLRLSCAASGFTFSSYGMHWVRQAPGKGLEWVAVISYDGSNKYYADSVKGRFTISRDNSKNTLYLQMNSLRAEDTAVYYCAKGSGPYYYDSSGYYSLFDYWGQGTLVTVSS
VL: EIVMTQSPATLSVSPGERATLSCRASQSISSNLAWYQQKPGQAPRLLIDGASTRATGIPARFSGSGSGTEFTLTISSLQSEDFAVYYCQQYNNWPTFGQGTKLEIK
Kd [1]: 46.4 nM | binding score [2]: 0.826

B14: D138 (antibody, V domains shown)
VH: QVQLVESGGGVVQPGRSLRLSCAASGFTFSSYGMHWVRQAPGKGLEWVAVISYDGSNKYYADSVKGRFTISRDNSKNTLYLQMNSLRAEDTAVYYCAKRAPYYYGPGGIDYWGQGTLVTVSS
VL: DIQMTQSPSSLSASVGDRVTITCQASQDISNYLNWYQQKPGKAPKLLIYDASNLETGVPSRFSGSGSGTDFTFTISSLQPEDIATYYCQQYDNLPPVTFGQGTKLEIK
Kd [1]: 201 nM | binding score [2]: 368

B15: D048 (antibody, V domains shown)
VH: QLQLQESGPGLVKPSETLSLTCTVSGGSISSSSYYWGWIRQPPGKGLELIGTIYYSGSTYYNPSLKSRVTISVDTSKNQFSLKLSSVTAADTAVYYCARKGPYYYDRSGYYRPGPIDYWGQGTLVTVSS
VL: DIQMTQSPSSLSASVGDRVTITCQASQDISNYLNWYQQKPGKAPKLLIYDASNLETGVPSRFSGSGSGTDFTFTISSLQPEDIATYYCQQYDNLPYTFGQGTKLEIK
Kd [1]: 23.4 nM | binding score [2]: 4.6

B16: C2717 (antibody, V domains shown)
VH: EVQLVESGGGLVQPGGSLRLSCAASGFTVSSNYMSWVRQAPGKGLEWVSVIYSGGSTYYADSVKGRFTISRDNSKNTLYLQMNSLRAEDTAVYYCARELYSSSSYFDYWGQGTLVTVSS
VL: QSVLTQPPSVSGAPGQRVTISCTGSSSNIGAGYDVHWYQQLPGTAPKLLIYGNSNRPSGVPDRFSGSKSGTSASLAITGLQAEDEADYYCQSYDSSLSGSGVFGGGTKLTVL
Kd [1]: 153 nM | binding score [2]: 124

B17: C2716 (antibody, V domains shown)
VH: EVQLVESGGGLIQPGGSLRLSCAASGFIVSSNYMSWVRQAPGKGLEWVSVIYSGGSTYYADSVKGRFTISRDNSKNTLYLQMNSLRAEDTAVYYCARDLGSYGHFDYWGQGTLVTVSS
VL: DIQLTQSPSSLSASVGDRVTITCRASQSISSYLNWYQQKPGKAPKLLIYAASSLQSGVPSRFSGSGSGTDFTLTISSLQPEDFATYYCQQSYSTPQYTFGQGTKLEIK
Kd [1]: 370 nM | binding score [2]: 1100

B18: D007 (antibody, V domains shown)
VH: QVQLVESGGGVVQPGGSLRLSCAASGFTFSSYGMHWVRQAPGKGLEWVAFIRYDGSNKYYADSVKGRFTISRDNSKNTLYLQMNSLRAEDTAVYYCAKDQYYYGSGSYSDYWGQGTLVTVSS
VL: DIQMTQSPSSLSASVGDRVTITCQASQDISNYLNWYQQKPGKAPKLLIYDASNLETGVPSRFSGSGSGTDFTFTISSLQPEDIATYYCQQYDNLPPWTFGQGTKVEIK
Kd [1]: 6720 nM | binding score [2]: 8280

B19: C2712 (antibody, V domains shown)
VH: EVQLVESGGGLVQPGGSLRLSCVASGFTFSSDDIHWVRQATGKGLEWVSGIGTAGDTYYAGSVKGRFTISRENAKNSLYLQMKSLRAGDTAVYYCARGVQSWLRGYYYYYMDVWGKGTTVTVSS
VL: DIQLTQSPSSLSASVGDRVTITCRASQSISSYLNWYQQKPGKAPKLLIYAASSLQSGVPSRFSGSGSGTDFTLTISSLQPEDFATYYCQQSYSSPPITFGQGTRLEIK
Kd [1]: 19.6 nM | binding score [2]: 7.83

B20: D053 (antibody, V domains shown)
VH: EVQLVESGGGLVKPGGSLRLSCAASGFTFSNAWMSWVRQAPGKGLEWIGRIKSNTDGGTIDYAAPVKGRFTISRDDSKNTLYLQMNSLKTEDTAVYYCTTDGAFFVVADPFDYWGQGTLVTVSS
VL: DIQMTQSPSSLSASVGDRVTITCRASQSMTNYLNWYQQKPGKAPELLIYGVSSLQSGVPSRFSGSGSGTDFTLTISSLQPEDFATYYCQQSYRTPRTFGQGTKVEIK
Kd [1]: 2420 nM | binding score [2]: 3050

B21: C2702 (antibody, V domains shown)
VH: EVQLVESGGGLVQPGGSLRLSCAASGFTFSSYSMNWVRQAPGKGLEWVSYISSSSSTIYYADSVKGRFTISRDNAKNSLYLQMNSLRDEDTAVYYCASFLWDHSGYDLLFGMDVWGQGTTVTVSS
VL: not shown
Kd [1]: 125 nM | binding score [2]: 295

B22: D068 (antibody, V domains shown)
VH: EVQLVESGGGLVKPGGSLRLSCAASGFTFSSYSMNWVRQAPGKGLEWVSSISSSSSYIYYADSVKGRFTISRDNAKNSLYLQMNSLRAEDTAVYYCARVDSSGWYTGDAFDIWGQGTMVTVSS
VL: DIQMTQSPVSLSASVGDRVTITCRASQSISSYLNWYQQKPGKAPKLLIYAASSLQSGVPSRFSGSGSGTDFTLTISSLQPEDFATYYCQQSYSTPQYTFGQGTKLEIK
Kd [1]: 196 nM | binding score [2]: 286

B23: D125 (antibody, V domains shown)
VH: QVQLQESGPGLVKPSETLSLTCSVSGVSISSYYWSWIRQPPGKGLEWIGYIYYSGSTNYNPSLKSRVTISVDTSKNQFSLKLSSVTAADTAVYYCARVVGDGYNFGYYYYMDVWGKGTTVTVSS
VL: QSVLTQPPSVSAAPGQKVTISCSGSSSNIGNNYVSWYQQLPGTAPKLLIYENNKRPSGIPDRFSGSKSGTSATLGITGLQTGDEADYYCGTWDSSLSAYVFGTGTKVTVL
Kd [1]: 103 nM | binding score [2]: 575

B24: D008 (antibody, V domains shown)
VH: QVQLVESGGGVVQPGRSLRLSCAASGFTFRSYGMHWVRQAPGKGLEWVAVISYDGSTKYYADSVKGRFTISRDNSKNTLYLQMNSLRAEDTAVYYCAKGGYYYDSNTYYVYWGQGTLVTVSS
VL: DIQMTQSPSSLSASVGDRVTITCQASQDISNHLNWYQQKPGKAPKLLIYDASNLETGVPSRFSGSGSGTDFTFTISSLQPEDIATYYCQQYDNLPPITFGQGTRLEIK
Kd [1]: 10.5 nM | binding score [2]: 12.4

B25: C2723 (antibody, V domains shown)
VH: QVQLQESGPGLVKPSETLSLTCTVSGGSVSSGSYYWSWIRQPPGKGLEWIGYIYYSGSTNYNPSLKSRVTISVDTSKNQFSLKLSSVTAADTAVYYCARGALYDSSGYYPELPVYWGQGTLVTVSS
VL: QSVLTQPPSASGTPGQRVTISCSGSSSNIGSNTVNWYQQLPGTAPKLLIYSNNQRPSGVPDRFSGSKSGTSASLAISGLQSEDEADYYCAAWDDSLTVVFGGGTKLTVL
Kd [1]: 20.9 nM | binding score [2]: 39.7
